Reference: US20260069726A1, “ZWITTERIONIC COMPOUNDS AND USES THEREOF” (priority 2022, published 2026)

Key:
[1] = format: in vitro ADME, human
Protocol: (§1) Serum stability was determined using a previously published method. Aliquots of each one of the [^68Ga]Ga-DOTA-TATEs (5.0 MBq) were added to 0.4 mL human or mice serum and incubated at 37° C. Aliquots (20 μL) were taken at various time intervals (10, 30, 60, 90, 120 minutes) and quenched in ice-cold acetonitrile. The samples were centrifuged, and the supernatants were diluted further with deionized water and were analyzed by radio-HPLC (a flow rate 0.65 mL/min with a gradient of CH3CN:H2O with 0.1% TFA in both). 5.0 MBq of [^68Ga]Ga-DOTA-TATEs were prepared in 0.4 mL of PBS and used as a reference in the radio-HPLC measurement for the stability in serum study.

[2] = format: in vitro ADME; conditions: plasma
Protocol: Serum binding assay for each one of [^68Ga]Ga-DOTA-TATEs were carried out as described in the literature. Compendiously, labelled [^68Ga]Ga-DOTA-TATEs (4-3 MBq) were added to freshly prepared 0.1 mL of anticoagulated human or mice plasma and the mixtures were incubated for 120 minutes at 37° C. This was followed by addition of 1.0 mL ice-cold acetonitrile and centrifuged for 2 minutes at 3000 RPM. The addition of acetonitrile had been repeated two times and all supernatants (denoted as A) were combined and the total radioactivity was measured using automated gamma counter. The radioactivity of the precipitate (B) was measured as well. The plasma-protein binding rate was calculated using Equation 2 below (n=3).

[3] = format: in vitro ADME, mouse
Protocol: as §1

[4] = format: physicochemical; conditions: pH 7.4
Protocol: The lipophilicity of each one of the [^68Ga]Ga-DOTA-TATEs were assessed as described in the literature. In brief, two phases of 1-octanol and phosphate buffer (PBS) at a pH of 7.4 were presaturated with each other. The presaturated 1-octanol (3.0 mL) was added to 3.0 mL of presaturated PBS that had about 0.3 MBq of labelled [^68Ga]Ga-DOTA-TATEs. The mixture was vortexed for 1.0 minute at room temperature then centrifuged for 1.0 minute at 3000 RPM. 1.0 mL of each phase was taken and measured its activity in automated gamma counter. Log D7.4 was determined for at least three experiments using Equation 1 below, where CPM (count per minute) is the reading from the gamma counter.

[5] = set-up: species or system healthy CD1 mice; conditions: mouse, in vivo
Protocol: After imaging was complete, the mice were kept awake for an additional 30 minutes before being euthanized, bringing the total period of the injection to 2 hours. Biodistribution was performed by removing and weighing individual tissues and organs, and then measuring the activity of [^68Ga]Ga^3+ inside each sample using an automated gamma counter.

[6] = set-up: species or system healthy CD1 mice; conditions: mouse, in vivo; remark: listed apart in the source
Protocol: Experiments were performed in healthy female mice (CD1) to determine the behavior and distribution of these compounds (pharmacokinetics). Mice were catheterized via tail vein and injected while in the scanner, and dynamic PET-CT imaging was performed from time 0 until 1.5 hours post injection (n=4 each group, 4 mice in the scanner simultaneously).

[7] = Ex vivo biodistribution in xenograft mice two hours post injection; conditions: male, NOD-SCID gamma (NSG), mouse, in vivo, iv, total radioactivity
Protocol: (§2) The experimental protocol was approved by the University of Saskatchewan Committee on Animal Care and procedures were performed in accordance with the guidelines of the Canadian Council on Animal Care and the Canadian Nuclear Safety Commission. Aliquots of about 200 μL of each one of [^68Ga]Ga-DOTA-TATEs (7-5 MBq with <10% EtOH) were loaded to 0.5 mL syringes and >96% Radiochemical yields (RCY) were confirmed by using radio-HPLC followed by injection to healthy CD1 female mice and xenograft bearing male NOD-SCID gamma mice (USASK colony F1 005557, strain NOD.Cg-PrkdcscidIl2rg) (n=4), via tail vein catheter while in the PET scanner with image acquisition started, under anesthesia (2.5% isoflurane in O2, at a flow rate of 2 mL/min). 90-minute dynamic images of all four mice were collected simultaneously on the Sofie GNEXT PET/CT small animal imaging system using the included 4-mouse heated bed. The mice were euthanized (by cervical dislocation while they were under the effect of anesthesia) at 2 hrs post injection and blood and specific organs were harvested, weighed, and residual activity in the organs were measured by using an automated gamma counter. All images were reconstructed using VivoQuant® 2020 software (patch 1 64 bit, build vq-2020patch1-0-ga8255affc).
(§3) As done for healthy mouse studies, animals were awakened for 30 minutes following PET/CT and then euthanized at 2 hours post injection. Tissue/organ samples were collected, weighed, and the amount of activity present in the samples was measured using an automated gamma counter.

[8] = test system: AR42J (SSTR2 over-expressing) subcutaneous tumors; assay: as above; conditions: for tumor uptake, biodistribution / tumor-to-kidney ratio: male AR42J tumor bearing mice; for tumor uptake, biodistribution / tumor-to-kidney ratio / tumor uptake compared with the other compounds: 2 hours post injection; for tumor uptake compared with the other compounds: AR42J tumor bearing mice; for pharmacokinetic of healthy-tissue clearance (words, figure legend) / tumor-tissue ratios (words, figure legend): mouse, in vivo
Protocol: as §2, §3

[9] = test system: AR42J (SSTR2 over-expressing) subcutaneous tumors; assay: Dynamic PET/CT imaging (0-90 minutes) in tumor-bearing mice; conditions: male NSG mice bearing AR42J tumors
Protocol: as §2

## C[C@@H](O)[C@H](NC(=O)[C@@H]1CSSC[C@H](NC(=O)[C@@H](Cc2ccccc2)NC(=O)CCOCCOCCOCCOCCNC(=O)[C@@H](Cc2ccc[n+](CCCS(=O)(=O)[O-])c2)NC(=O)CN2CCN(CC(=O)O)CCN(CC(=O)O)CCN(CC(=O)O)CC2)C(=O)N[C@@H](Cc2ccc(O)cc2)C(=O)N[C@H](Cc2c[nH]c3ccccc23)C(=O)N[C@@H](CCCCN)C(=O)N[C@@H]([C@@H](C)O)C(=O)N1)C(=O)O [DOTA-Pyr(ZW)-PEG4-TATE]
[1]
  HSS % (2 hrs.) = Human Serum Stability: 100%
[2]
  fraction unbound at 120 min: 0.575
[3]
  MSS % (2 hrs.) = Mouse Serum Stability: 99.6 ± 0.1%
[4]
  logD: -3.57

## C[C@@H](O)[C@H](NC(=O)[C@@H]1CSSC[C@H](NC(=O)[C@@H](Cc2ccccc2)NC(=O)CN2CCN(CC(=O)O)CCN(CC(=O)O)CCN(CC(=O)O)CC2)C(=O)N[C@@H](Cc2ccc(O)cc2)C(=O)N[C@H](Cc2c[nH]c3ccccc23)C(=O)N[C@@H](CCCCN)C(=O)N[C@@H]([C@@H](C)O)C(=O)N1)C(=O)O [DOTA-TATE, DOTA-Tyr^3-octreotate, reference compound]
[1]
  HSS % (2 hrs.) = Human Serum Stability: 100%
[5]
  renal uptake, biodistribution: ~74±51 D/g %
[6]
  start of excretion / renal elimination into the bladder: ~70 minutes post injection
[7]
  tissue uptake at 2 h: 38.8 ± 42.7 %ID/g
[8]
  tumor uptake, biodistribution: 13.8±4.6 % ID/g
  tumor-to-kidney ratio: 0.35
[2]
  fraction unbound: 0.567
[9]
  kidney accumulation, retention and clearance seen in dynamic PET/CT: rapid accumulation and protracted retention
[3]
  MSS % (2 hrs.) = Mouse Serum Stability: 100%
[4]
  logD: -2.81

## C[C@@H](O)[C@H](NC(=O)[C@@H]1CSSC[C@H](NC(=O)[C@@H](Cc2ccccc2)NC(=O)CCOCCOCCOCCOCCNC(=O)[C@H](CCCC[N+](C)(C)CCCS(=O)(=O)[O-])NC(=O)[C@H](CCCC[N+](C)(C)CCCS(=O)(=O)[O-])NC(=O)CN2CCN(CC(=O)O)CCN(CC(=O)O)CCN(CC(=O)O)CC2)C(=O)N[C@@H](Cc2ccc(O)cc2)C(=O)N[C@H](Cc2c[nH]c3ccccc23)C(=O)N[C@@H](CCCCN)C(=O)N[C@@H]([C@@H](C)O)C(=O)N1)C(=O)O [DOTA-(ZW2)-PEG4-TATE]
[1]
  HSS % (2 hrs.) = Human Serum Stability: 100%
[8]
  tumor uptake compared with the other compounds: reduced tumor uptake
  pharmacokinetic of healthy-tissue clearance (words, figure legend): faster
  tumor-tissue ratios (words, figure legend): improved
[2]
  fraction unbound at 120 min: 0.515
[3]
  MSS % (2 hrs.) = Mouse Serum Stability: 100%
[4]
  logD: -3.36 ± 0.18

## C[C@@H](O)[C@H](NC(=O)[C@@H]1CSSC[C@H](NC(=O)[C@@H](Cc2ccccc2)NC(=O)CCOCCOCCOCCOCCNC(=O)[C@H](CCCC[N+](C)(C)CCCS(=O)(=O)[O-])NC(=O)CN2CCN(CC(=O)O)CCN(CC(=O)O)CCN(CC(=O)O)CC2)C(=O)N[C@@H](Cc2ccc(O)cc2)C(=O)N[C@H](Cc2c[nH]c3ccccc23)C(=O)N[C@@H](CCCCN)C(=O)N[C@@H]([C@@H](C)O)C(=O)N1)C(=O)O [DOTA-(ZW1)-PEG4-TATE]
[1]
  HSS % (2 hrs.) = Human Serum Stability: 100%
[7]
  tissue uptake at 2 h: 32.9 ± 19.8 %ID/g
[8]; listed as Lys(ZW) derivative
  tumor uptake compared with the other compounds: greater tumor uptake
[8]; listed as [^68Ga]Ga-DOTA-Lys(ZW)-PEG4-TATE
  tumor uptake compared with the other compounds: highest
[8]
  tumor uptake, biodistribution: 20.6±2.5 % ID/g
  tumor-to-kidney ratio: 0.63
  pharmacokinetic of healthy-tissue clearance (words, figure legend): faster
  tumor-tissue ratios (words, figure legend): improved
[2]
  fraction unbound at 120 min: 0.534
[3]
  MSS % (2 hrs.) = Mouse Serum Stability: 100%
[4]
  logD: -3.39 ± 0.19
